# Experimental data taken from patent US9670514B2, “Method for producing polysaccharide” (SANYO CHEMICAL INDUSTRIES, LTD., priority 2011, dated 2017).
# How the values were obtained:
# Format in all cases: biochemical
# Settings in all cases: 30° C., pH 7.0
# [1] = Specific activity of hyaluronan synthase aqueous solution (14C-glucuronic acid uptake)
# Method: Reaction solution (1) was prepared by adding 10 μL of hyaluronan synthase aqueous solution (B-1) obtained in Preparation 1 to 1 mL of aqueous solution S (50 mM phosphate buffer (pH of 7.0) containing 1 mM uridine diphosphate-glucuronic acid (labeled radioactive radioactivity of 300 mCi/mmol), 1 mM uridine diphosphate-N-acetylglucosamine, 100 mM sodium chloride, 10 mM magnesium chloride, 10 mM dodecylmaltoside, and 5 mM oleic acid). Four such reaction solutions (1) were prepared and allowed to react at 30° C. for 5 minutes, 10 minutes, 15 minutes, and 20 minutes, respectively. Hyaluronan was separated from the unreacted substrate by paper chromatography (developing solvent containing 1 M ammonium acetate (pH of 5.5) and ethanol at a 7:13 ratio, hereinafter the same) using filter paper (Whatman No. 3 MM, hereinafter the same), and then the origin was cut out and immersed in a liquid scintillation cocktail. The radioactive isotope was then measured using a liquid scintillation counter. The amount of hyaluronan synthesis was calculated from the amount of uptake of ^14C-labeled glucuronic acid. The results were 1.6 mg after 5 minutes, 2.9 mg after 10 minutes, 4.2 mg after 15 minutes, and 5.5 mg after 20 minutes. The specific activity of hyaluronan synthase aqueous solution (B-1) was calculated from the relationship between the amount of hyaluronan synthesis and the reaction time. […]
# [2] = Specific activity of starch synthase aqueous solution
# Method: Reaction solution (13) was prepared by adding 10 μL of starch synthase aqueous solution (B-4) obtained in Preparation 13 to 1 mL of aqueous solution V (50 mM phosphate buffer (pH of 7.0) containing 100 mM uridine diphosphate-α-glucose (^14C-labeled radioactive isotope-containing uridine diphosphate-α-glucose; radioactivity of 300 mCi/mmol), 100 mM sodium chloride, 10 mM magnesium chloride, and 5 mM oleic acid). Four such solutions (13) were prepared and allowed to react at 30° C. for 5 minutes, 10 minutes, 15 minutes, and 20 minutes, respectively. Starch was separated from the unreacted substrate by paper chromatography using filter paper, and then the origin was cut out and immersed in a liquid scintillation cocktail. The radioactive isotope was then measured using a liquid scintillation counter. The yield of starch was calculated from the amount of uptake of ^14C-labeled glucose. The results were 1.3 mg after 5 minutes, 2.5 mg after 10 minutes, 3.8 mg after 15 minutes, and 5.2 mg after 20 minutes. The specific activity of starch synthase aqueous solution (B-4) was calculated from the relationship between the yield of starch and the reaction time. The result was 0.15 U/μL.
# [3] = Activity of uridylyltransferase (G-1) to produce uridine diphosphate-N-acetylglucosamine
# Method: (§1) Reaction solution (10-1) was prepared by adding 10 μL of uridine triphosphate-monosaccharide-1-phosphate uridylyltransferase aqueous solution (G-1) obtained in Preparation 10 to 1 mL of aqueous solution (50 mM phosphate buffer (pH of 7.0) containing 100 mM sodium chloride, 10 mM magnesium chloride, 10 mM uridine triphosphate, and 10 mM N-acetylglucosamine-1-phosphate). Three such reaction solutions (10-1) were prepared and allowed to react at 30° C. for 5 minutes, 10 minutes, and 15 minutes, respectively. As for the quantity of the produced uridine diphosphate-N-acetylglucosamine, the product was detected with a UV light (260 nm) in HPLC. The activity of uridine triphosphate-monosaccharide-1-phosphate uridylyltransferase to produce uridine diphosphate-N-acetylglucosamine was determined from the amount of uridine diphosphate-N-acetylglucosamine production. The result was 0.1 U/mL.
# [4] = Activity of uridylyltransferase (G-1) to produce uridine diphosphate-glucuronic acid
# Method: as §1
# The activity of uridine triphosphate-monosaccharide-1-phosphate uridylyltransferase to produce uridine diphosphate-glucuronic acid was determined in a similar manner as described above, except that an aqueous solution containing “10 mM glucuronic acid 1-phosphate” was used in place of “10 mM N-acetylglucosamine-1-phosphate” and “uridine diphosphate-glucuronic acid” was quantitated in place of “uridine diphosphate-N-acetylglucosamine”. The result was 5 U/μL.
# [5] = Specific activity of chondroitin synthase aqueous solution
# Method: Reaction solution (11) was prepared by adding 10 μL of chondroitin synthase aqueous solution (B-2) obtained in Preparation 11 to 1 mL of aqueous solution T (50 mM phosphate buffer (pH of 7.0) containing 1 mM uridine diphosphate-glucuronic acid (^14C-labeled radioactive isotope-containing uridine diphosphate-glucuronic acid; radioactivity of 300 mCi/mmol), 1 mM uridine diphosphate-N-acetylgalactosamine, 100 mM sodium chloride, 10 mM magnesium chloride, 10 mM dodecylmaltoside, and 5 mM oleic acid). Three such reaction solutions (11) were prepared and allowed to react at 30° C. for 5 minutes, 10 minutes, and 15 minutes, respectively. Chondroitin was separated from the unreacted substrate by paper chromatography using filter paper. Subsequently, the origin was cut out and immersed in a liquid scintillation cocktail, and the radioactive isotope was then measured using a liquid scintillation counter. The yield of chondroitin was calculated from the amount of uptake of ^14C-labeled glucuronic acid. The results were 1.7 μg after 5 minutes, 3.1 μg after 10 minutes, and 4.4 μg after 15 minutes. The specific activity of chondroitin synthase aqueous solution (B-2) was calculated from the relationship between the yield of chondroitin and the reaction time. The result was 0.15 U/mL.
molecule,measurement,setting,value
"hyaluronan synthase aqueous solution (B-1): FLAG-tagged hyaluronan synthase, SEQ ID NO: 1, from Streptococcus equisimilis, expressed in E. coli (protein, FLAG tag; aqueous solution; STREPTOCOCCUS) MPIFKKTLIVLSFIFLISILIYLNMYLFGTSTVGIYGVILITYLVIKLGLSFLYEPFKGNPHDYKVAAVIPSYNEDAESLLETLKSVLAQTYPLSEIYIVDDGSSNTDAIQLIEEYVNREVDICRNVIVHRSLVNKGKRHAQAWAFERSDADVFLTVDSDTYIYPNALEELLKSFNDETVYAATGHLNARNRQTNLLTRLTDIRYDNAFGVERAAQSLTGNILVCSGPLSIYRREVIIPNLERYKNQTFLGLPVSIGDDRCLTNYAIDLGRTVYQSTARCDTDVPFQLKSYLKQQNRWNKSFFRESIISVKKILSNPIVALWTIFEVVMFMMLIVAIGNLLFNQAIQLDLIKLFAFLSIIFIVALCRNVHYMVKHPASFLLSPLYGILHLFVLQPLKLYSLCTIKNTEWGTRKKVTIFK",specific activity,[1],0.15 U/μL
"starch synthase aqueous solution (B-4): starch synthase, SEQ ID NO: 13, derived from Saccharomyces cerevisiae (protein, listed as Saccharomyces cerevisiae) MSRDLQNHLLFETATEVANRVGGIYSVLKSKAPITVAQYKDHYHLIGPLNKATYQNEVDILDWKKPEAFSDEMRPVQHALQTMESRGVHFVYGRWLIEGAPKVILFDLDSVRGYSNEWKGDLWSLVGIPSPENDFETNDAILLGYTVAWFLGEVAHLDSQHAIVAHFHEWLAGVALPLCRKRRIDVVTIFTTHATLLGRYLCASGSFDFYNCLESVDVDHEAGRFGIYHRYCIERAAAHSADVFTTVSQITAFEAEHLLKRKPDGILPNGLNVIKFQAFHEFQNLHALKKEKINDFVRGHFHGCFDFDLDNTLYFFIAGRYEYKNKGADMFIEALARLNYRLKVSGSKKTVVAFIVMPAKNNSFTVEALKGQAEVRALENTVHEVTTSIGKRIFDHAIRYPHNGLTTELPTDLGELLKSSDKVMLKRRILALRRPEGQLPPIVTHNMVDDANDLILNKIRQVQLFNSPSDRVKMIFHPEFLNANNPILGLDYDEFVRGCHLGVFPSYYEPWGYTPAECTVMGVPSITTNVSGFGAYMEDLIETNQAKDYGIYIVDRRFKAPDESVEQLVDYMEEFVKKTRRQRINQRNRTERLSDLLDWKRMGLEYVKARQLALRRGYPDQFRELVGEELNDSNMDALAGGKKLKVARPLSVPGSPRDLRSNSTVYMTPGDLGTLQEVNNADDYFSLGVNPAADDDDDGPYADDS",specific activity,[2],0.15 U/μL
"uridine triphosphate-monosaccharide-1-phosphate uridylyltransferase aqueous solution (G-1): uridylyltransferase, SEQ ID NO: 10, derived from Arabidopsis (protein, aqueous solution; Arabidopsis) MASTVDSNFFSSVPALHSNLGLLSPDQIELAKILLENGQSHLFQQWPELGVDDKEKLAFFDQIARLNSSYPGGLAAYIKTAKELLADSKVGKNPYDGFSPSVPSGENLTFGTDNFIEMEKRGVVEARNAAFVLVAGGLGERLGYNGIKVALPRETTTGTCFLQHYIESILALQEASNKIDSDGSERDIPFIIMTSDDTHSRTLDLLELNSYFGMKPTQVHLLKQEKVACLDDNDARLALDPHNKYSIQTKPHGHGDVHSLLYSSGLLHKWLEAGLKWVLFFQDTNGLLFNAIPASLGVSATKQYHVNSLAVPRKAKEAIGGISKLTHVDGRSMVINVEYNQLDPLLRASGFPDGDVNCETGFSPFPGNINQLILELGPYKDELQKTGGAIKEFVNPKYKDSTKTAFKSSTRLECMMQDYPKTLPPTARVGFTVMDIWLAYAPVKNNPEDAAKVPKGNPYHSATSGEMAIYRANSLILQKAGVKVEEPVKQVLNGQEVEVWSRITWKPKWGMIFSDIKKKVSGNCEVSQRSTMAIKGRNVFIKDLSLDGALIVDSIDDAEVKLGGLINNGWTMESVDYKDTSVPEEIRIRGFRFNKVEQLEKKLTQPGKFSVED",activity to produce uridine diphosphate-N-acetylglucosamine,[3],0.1 U/mL
same,activity to produce uridine diphosphate-glucuronic acid,[4],5 U/μL
"chondroitin synthase aqueous solution (B-2): chondroitin synthase, SEQ ID NO: 11, derived from Pasteurella multocida (protein, listed as Pasteurella multocida, aqueous solution) MNTLSQAIKAYNSNDYELALKLFEKSAETYGRKIVEFQIIKCKEKLSTNSYVSEDKKNSVCDSSLDIATQLLLSNVKKLTLSESEKNSLKNKWKSITGKKSENAEIRKVELVPKDFPKDLVLAPLPDHVNDFTWYKNRKKSLGIKPVNKNIGLSIIIPTFNRSRILDITLACLVNQKTNYPFEVVVADDGSKENLLTIVQKYEQKLDIKYVRQKDYGYQLCAVRNLGLRTAKYDFVSILDCDMAPQQLWVHSYLTELLEDNDIVLIGPRKYVDTHNITAEQFLNDPYLIESLPETATNNNPSITSKGNISLDWRLEHFKKTDNLRLCDSPFRYFSCGNVAFSKEWLNKVGWFDEEFNHWGGEDVEFGYRLFAKGCFFRVIDGGMAYHQEPPGKENETDREAGKSITLKIVKEKVPYIYRKLLPIEDSHIHRIPLVSIYIPAYNCANYIQRCVDSALNQTVVDLEVCICNDGSTDNTLEVINKLYGNNPRVRIMSKPNGGIASASNAAVSFAKGYYIGQLDSDDYLEPDAVELCLKEFLKDKTLACVYTTNRNVNPDGSLIANGYNWPEFSREKLTTAMIAHHFRMFTIRAWHLTDGFNENIENAVDYDMFLKLSEVGKFKHLNKICYNRVLHGDNTSIKKLGIQKKNHFVVVNQSLNRQGINYYNYDKFDDLDESRKYIFNKTAEYQEEMDILKDLKLIQNKDAKIAVSIFYPNTLNGLVKKLNNIIEYNKNIFVIILHVDKNHLTPDIKKEILAFYHKHQVNILLNNDISYYTSNRLIKTEAHLSNINKLSQLNLNCEYIIFDNHDSLFVKNDSYAYMKKYDVGMNFSALTHDWIEKINAHPPFKKLIKTYFNDNDLRSMNVKGASQGMFMKYALPHELLTIIKEVITSCQSIDSVPEYNTEDIWFQFALLILEKKTGHVFNKTSTLTYMPWERKLQWTNEQIQSAKKGENIPVNKFIINSITL",specific activity,[5],0.15 U/mL
